{
  "source": "IntAct's records for PubMed 16511572",
  "parents": {"B1": {"name": "14-3-3 protein gamma (Homo sapiens), P61981 (parent)", "chain": "MVDREQLVQKARLAEQAERYDDMAAAMKNVTELNEPLSNEERNLLSVAYKNVVGARRSSWRVISSIEQKTSADGNEKKIEMVRAYREKIEKELEAVCQDVLSLLDNYLIKNCSETQYESKVFYLKMKGDYYRYLAEVATGEKRATVVESSEKAYSEAHEISKEHMQPTHPIRLGLALNYSVFYYEIQNAPEQACHLAKTAFDDAIAELDTLNEDSYKDSTLIMQLLRDNLTLWTSDQQDDDGGEGNN", "partner": "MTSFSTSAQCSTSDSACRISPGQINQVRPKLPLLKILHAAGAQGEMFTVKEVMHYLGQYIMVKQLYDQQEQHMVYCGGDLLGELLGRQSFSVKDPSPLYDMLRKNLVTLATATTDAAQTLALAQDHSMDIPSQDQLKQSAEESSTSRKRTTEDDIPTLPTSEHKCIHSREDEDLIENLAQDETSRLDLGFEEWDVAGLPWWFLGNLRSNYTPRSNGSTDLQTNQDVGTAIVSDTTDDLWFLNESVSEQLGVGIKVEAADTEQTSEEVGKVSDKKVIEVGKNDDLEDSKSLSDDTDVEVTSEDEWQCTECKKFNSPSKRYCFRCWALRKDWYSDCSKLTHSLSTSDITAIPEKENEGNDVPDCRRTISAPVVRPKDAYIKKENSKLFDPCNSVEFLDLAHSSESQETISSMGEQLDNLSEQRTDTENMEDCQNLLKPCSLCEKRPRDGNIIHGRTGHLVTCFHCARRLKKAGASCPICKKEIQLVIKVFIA"}, "B2": {"name": "Protein Mdm4 (Homo sapiens), O15151 (parent)", "chain": "B1 partner", "partner": "B1 chain"}},
  "data": [
    {"variants_of": "B1", "settings": "with mdm4_human MDM4, O15151", "values": [
      {"variant": "MVDREQLVQKARLAEQAERYDDMAAAMKNVTELNEPLSNEERNLLSVAYENVVGARRSSWRVISSIEQKTSADGNEKKIEMVRAYREKIEKELEAVCQDVLSLLDNYLIKNCSETQYESKVFYLKMKGDYYRYLAEVATGEKRATVVESSEKAYSEAHEISKEHMQPTHPIRLGLALNYSVFYYEIQNAPEQACHLAKTAFDDAIAELDTLNEDSYKDSTLIMQLLRDNLTLWTSDQQDDDGGEGNN", "note": "[K50E]", "effect of a mutation on the interaction": "disrupting interaction"}
    ]},
    {"variants_of": "B2", "settings": "with 1433g_human YWHAG", "values": [
      {"variant": "P369G", "effect of a mutation on the interaction": "disrupting interaction"},
      {"variant": "MTSFSTSAQCSTSDSACRISPGQINQVRPKLPLLKILHAAGAQGEMFTVKEVMHYLGQYIMVKQLYDQQEQHMVYCGGDLLGELLGRQSFSVKDPSPLYDMLRKNLVTLATATTDAAQTLALAQDHSMDIPSQDQLKQSAEESSTSRKRTTEDDIPTLPTSEHKCIHSREDEDLIENLAQDETSRLDLGFEEWDVAGLPWWFLGNLRSNYTPRSNGSTDLQTNQDVGTAIVSDTTDDLWFLNESVSEQLGVGIKVEAADTEQTSEEVGKVSDKKVIEVGKNDDLEDSKSLSDDTDVEVTSEDEWQCTECKKFNSPSKRYCFRCWALRKDWYSDCSKLTHSLSTSDITAIPEKENEGNDVPDCRRTIGAPVVRPKDAYIKKENSKLFDPCNSVEFLDLAHSSESQETISSMGEQLDNLSEQRTDTENMEDCQNLLKPCSLCEKRPRDGNIIHGRTGHLVTCFHCARRLKKAGASCPICKKEIQLVIKVFIA", "note": "[S367G]", "effect of a mutation on the interaction": "disrupting interaction"}
    ]}
  ]
}
